In patent publication US10561712B2, “Treatment of cancer and inhibition of metastasis using hemoglobin beta subunit” (UNIVERSITY OF MARYLAND, BALTIMORE, priority 2014, dated 2020):

Key:
[1] = test system: MicroNB cells (human neuroblastoma lung micrometastatic variant, MHH-NB11); assay: MTS-based viability assay, MicroNB cells; format: cell-based; details: 10 μg human HBB, 72 hr, FIG. 3D
From the text: (§1) The human neuroblastoma lung micrometastatic (MicroNB) and macrometastatic (MacroNB) variants were generated using a mouse model for human neuroblastoma metastasis (Nevo et al., 2008) from the parental cell lines MHH-NB11 (Pietsch et al., 1988) and SH-SY5Y (Biedler et al., 1978) as detailed here (Edry Botzer et al., 2011), and were maintained in culture as previously described (Nevo et al., 2008). The MicroNB and MacroNB variants were previously designated DisNB and MetNB, respectively (Edry Botzer et al., 2011). Authentication of MicroNB and MacroNB cells was performed by short tandem repeat analysis of DNA using the Type-it Microsatellite PCR Kit (Qiagen, Valencia, Calif.), for the genes published by the American Type Culture Collection (ATCC) (Manassas, Va.). The parental cell line MHH-NB11 was kindly provided by Dr. T. Pietsch (Department of Neuropathology, University of Bonn Medical Center, Bonn, Germany).
(§2) Neuroblastoma cells were seeded (3×10^4 per well) in a 96-well flat-bottomed tissue culture plate. After an incubation of 24 hr, cells were washed and incubated with the relevant factors (detailed in the following sections) diluted in starvation medium (RPMI-1640 containing 5% bovine serum albumin (BSA); Biological Industries, Kibbutz Beit Haemek, Israel; Sigma-Aldrich). Cell viability under normal conditions (starvation medium containing BSA) or after incubation with the relevant factors was monitored after 72 hr using an XTT (XTT cell proliferation kit; Biological Industries) or MTS-based (CellTiter 96® AQueous One Solution Cell Proliferation Assay; Promega) viability assays according to manufacturer instructions. Cells were also counted using the trypan-blue exclusion assay to verify the results obtained by XTT and MTS-based viability assays.
Circular dichroism analysis of human hemoglobin (HB), hemoglobin subunit alpha (HBA) and subunit beta (HBB) indicated a helical structure for all three proteins (FIG. 3C). […] Neuroblastoma cells were seeded (3×10^4 per well) in a 96 well flat-bottomed tissue culture plate. After 24 hr of incubation cells were washed and incubated with human HBB dissolved in starvation medium (RPMI 5% BSA) to the indicated concentrations. Cell viability under normal conditions (starvation medium) or after incubation with human HBB was monitored after an incubation of 72 hr using an MTS-based viability assay (CellTiter 96® AQueous One Solution Cell Proliferation Assay, Promega) according to the manufacturer instructions. Data are means of three independent experiments±SD. Significance was evaluated using Student's t-test for each variant incubated with human HBB compared to incubation with control media (con).

[2] = test system: MacroNB cells (human neuroblastoma lung macrometastatic variant); assay: MTS-based viability assay, MacroNB cells; format: cell-based; details: 10 μg human HBB, 72 hr, FIG. 3D
From the text: as §1
as §2, with “After an incubation of 24 hr, cells were washed and incubated with the relevant factors (detailed in the following sections) diluted in starvation medium (RPMI-1640 containing 5% bovine serum albumin (BSA); Biological Industries, Kibbutz Beit Haemek, Israel; Sigma-Aldrich).” left out
Circular dichroism analysis of human hemoglobin (HB), hemoglobin subunit alpha (HBA) and subunit beta (HBB) indicated a helical structure for all three proteins (FIG. 3C). […] Cell viability under normal conditions (starvation medium) or after incubation with human HBB was monitored after an incubation of 72 hr using an MTS-based viability assay (CellTiter 96® AQueous One Solution Cell Proliferation Assay, Promega) according to the manufacturer instructions. […] Significance was evaluated using Student's t-test for each variant incubated with human HBB compared to incubation with control media (con).

[3] = test system: MCF-7 breast carcinoma cells; assay: Viability of cancerous cell lines, MCF-7; details: MTS-based assay; FIG. 3E
Procedure: as §2
When incubated with the highest amount of HBB (100 μg), the viability of the following cell lines was inhibited: the breast cancer cell lines T47D and MCF-7, the prostate cancer cell line 22RVi, the cervical cancer cell line Hela, and the melanoma cell lines RALL and RKTJ.

[4] = test system: HLMEC (Human lung microvascular endothelial cells); assay: Viability of normal cells, HLMEC; format: cell-based; details: normal lung-residing cell line, data not shown
From the text: (§3) The influence of HBB on the viability of the normal lung-residing cell lines HPEC (Human pulmonary endothelial cells) and HLMEC (Human lung microvascular endothelial cells) and on the normal kidney cell line 293T and 293A was examined as well.

[5] = test system: normal kidney cell line 293T; assay: Viability of normal cells, 293T; format: cell-based; details: data not shown
From the text: as §3

[6] = test system: normal kidney cell line 293A; assay: Viability of normal cells, 293A; format: cell-based; details: data not shown
From the text: as §3

MicroNB cells = assay: Trypan blue exclusion assay, MicroNB cells; format: cell-based, human; details: incubation with HBB, results not shown
Procedure: as §2
The HBB-mediated inhibitory activity was dose dependent (results not shown).

[7] = test system: ERK1/2 phosphorylation in MicroNB cells; assay: ERK1/2 phosphorylation (western blot), MicroNB cells; format: cell-based, human; details: HBB (1 μg) for 48 hr; in reference to total ERK2; FIG. 4A
Procedure: Lysates of neuroblastoma cells and of mouse organs were resolved on SDS-PAGE after the addition of Laemmli sample buffer, and transferred onto nitrocellulose membrane. The total amount of protein in the lanes was assessed by Ponceau staining prior to blocking of the membrane. The membrane was blocked at room temperature with 3% BSA (Sigma-Aldrich) diluted in TBS-Tween (TBST) for 1 hr. For detection of the target proteins, membranes were incubated with relevant primary antibodies (see “Antibodies”), then washed 3 times×5 min with TBSTX1 and incubated with suitable HRP-conjugated secondary antibodies (see “Antibodies”). Membranes were washed again 5 times×3 min with TBSTX1. The bands were visualized by chemiluminescence-ECL reactions and autoradiography by exposure to Fuji film. The amount of the relevant protein in the lanes was estimated by densitometry using Scion Image software (Scion, Frederick, Md., USA).
Neuroblastoma cells (5×10^6) were plated and after 24 hr the growth medium was replaced with starvation medium (RPMI 0.5% FCS) for 24 hr. […] ERK1/2 phosphorylation was calculated in reference to total ERK2 protein, p38 and TAK1 phosphorylation was calculated in reference to total p38 and TAK1, respectively, as measured by densitometry using Scion Image software (Scion). […]

MacroNB cells = assay: Cell cycle analysis by flow cytometry, MacroNB cells; format: cell-based, human; details: HBB (1 μg) for 48 hr
Procedure: Neuroblastoma cells (5×10^5) were plated and after 24 hr, cells were incubated for 48 hr with HBB diluted in starvation medium (RPMI 5% BSA) to a concentration of 10 μg/ml. Neuroblastoma cells incubated with starvation medium containing BSA alone served as control. Cells were pelleted, washed and resuspended in 0.5 ml PBSX1, containing 0.05 ml propidium iodide (PI) (P-4170, Sigma) (50 μg/ml), and 0.05 ml Triton X-100 (Sigma-Aldrich). Flow cytometry analysis was performed using Becton Dickinson FACSort and CellQuest software (Becton Dickinson, Mountain View, Calif.).
The cells were also subjected to measurement of cellular DNA content and cell cycle analysis using flow cytometry. Incubation with human HBB elevated the amount of MicroNB and MacroNB cells in the sub GO phase, by 18% and 11%, respectively (data not shown).

HBB: beta subunit of human hemoglobin, 147 amino acids, SEQ ID NO:2, HPLC-purified from native human hemoglobin
decrease in viability of MicroNB cells [1]: 52% | decrease in viability of MacroNB cells [2]: 29% | influence on viability of MCF-7 breast carcinoma cells (in words) [3]: inhibits the viability | influence on the viability of normal cells [4]: did not influence the viability | influence on the viability of normal cells [5]: did not influence the viability | influence on the viability of normal cells [6]: did not influence the viability | non-viable MicroNB cells following incubation (MicroNB cells): 16% | ERK phosphorylation in MicroNB cells [7]: decreased | elevation of the amount of MacroNB cells in G0-G1 phase (MacroNB cells; FIG. 4B): 23% | elevation of the amount of MacroNB cells in the sub G0 phase (MacroNB cells; data not shown): 11%
